The values that follow come from the supplement of paper PMC7877785.

The nature of this data set: self-splicing fitness, log relative to wild type (ln ratio); higher = more splicing; Tetrahymena group I intron in knt gene, E. coli kanamycin selection, DiMSum; sequences stand for … in CUCUCU…GGAGGGAAAAGUUAUCAGGCAUGCACCUGGUAGCUAGUCUUUAAACCAAUAGAUUGCAUCGGUUUAAAAGGCAAGACCGUCAAAUUGCGGGAAAGGGGUCAACAGCCGUUCAGUACCAAGUCUCAGGGGAAACUUUGAGAUGGCCUUGCAAAGGGUAUGGUAAUAAGCUGACGGACAUGGUCCUAACCACGCAGCCAAGUCCUAAGUCAACAGAUCUUCUGUUGAUAUGGAUGCAGUUCACAGACUAAAUGUCGGUCGGGGAAGAUGUAUUCUUCUCAUAAGAUAUAGUCGGACCUCUCCUUAAUGGGAGCUAGCGGAUGAAGUGAUGCAACACUGGAGCCGCUGGGAACUAAUUUGUAUGCGAAAGUAUAUUGAUUAGUUUUGGAGUACUCGUGGUCG
The method, boiled down:
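A randomised library covering all eight P1ex-region intron nucleotides was built with the intron in the knt kanamycin-resistance gene on pET-22b(+) and held in E. coli BL21(DE3). Cells were grown overnight at 37°C or 30°C on LB agar, with or without 25 μg/mL kanamycin, plus 100 μg/mL carbenicillin, 50 μM IPTG and 0.2% rhamnose, and pooled colonies were amplicon-sequenced on an Illumina HiSeq 2500. DiMSum fitness is the error-weighted combination of wild-type-normalised replicate fold changes, kanamycin versus none.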

± gives the uncertainty stated by the source.

For UCAUAGCAAUAUUACGUGGU, the “self-splicing fitness (ln)” value reads like this: (30 °C) -3.42 ± 0.16; (37 °C) -2.8 ± 0.16.
For UCCAAGCAAUAUUACGAAGA the same measures were -0.503 ± 0.086 and -0.326 ± 0.087.
In the same order, the values of UCCAAGCAAUAUUACGAAGU are -1.09 ± 0.14 and -1.57 ± 0.15.
In the same order, the values of UCCAAGCAAUAUUACGACAC are -2.35 ± 0.31 and -1.42 ± 0.38.
As for UCCAAGCAAUAUUACGACUU, the “self-splicing fitness (ln)” value (30 °C) was -3.57 ± 0.17 and the “self-splicing fitness (ln)” value (37 °C) is -2.54 ± 0.18.
In the same order, the values of UCCAAGCAAUAUUACGAGGG are -3.08 ± 0.2 and -2.31 ± 0.31.
In the same order, the values of UCCAAGCAAUAUUACGAGUG are -2.75 ± 0.13 and -2.03 ± 0.11.
In the same order, the values of UCCAAGCAAUAUUACGCAGG are -3.56 ± 0.43 and -2.05 ± 0.26.
As to UCCAAGCAAUAUUACGCAUG, the “self-splicing fitness (ln)” value by setting is: (30 °C) -4.8 ± 0.31; (37 °C) -2.27 ± 0.19.
Turning to UCCAAGCAAUAUUACGCGGG, the “self-splicing fitness (ln)” value was -3.94 ± 0.24 (30 °C) and -3.8 ± 0.36 (37 °C).
In the same order, the values of UCCAAGCAAUAUUACGCGGU are -2.56 ± 0.13 and -1.92 ± 0.16.
In the same order, the values of UCCAAGCAAUAUUACGCUUA are -3.43 ± 0.18 and -1.86 ± 0.11.
For UCCAAGCAAUAUUACGGCCU the same measures were -2.33 ± 0.29 and -2.6 ± 0.27.
In the case of UCCAAGCAAUAUUACGGCUA, the “self-splicing fitness (ln)” value runs as follows: (30 °C) -1.98 ± 0.14; (37 °C) -0.476 ± 0.11.
Consider UCCAAGCAAUAUUACGGCUU, for which the “self-splicing fitness (ln)” value runs as follows: (30 °C) -3.94 ± 0.4; (37 °C) -1.53 ± 0.25.
For UCCAAGCAAUAUUACGGUCC the same measures were -2.7 ± 0.37 and -1.04 ± 0.22.
Consider UCCAAGCAAUAUUACGUAUC, for which the “self-splicing fitness (ln)” value (30 °C) was -4.43 ± 0.27 and the “self-splicing fitness (ln)” value (37 °C) was -1.93 ± 0.16.
For UCCAAGCAAUAUUACGUCAC the same measures were -3.72 ± 0.39 and -3.28 ± 0.43.
As to UCCAAGCAAUAUUACGUCUU, the “self-splicing fitness (ln)” value is -3.92 ± 0.19 (30 °C) and -1.46 ± 0.14 (37 °C).
In the same order, the values of UCCAAGCAAUAUUACGUGAG are -2.37 ± 0.098 and -0.996 ± 0.097.
For UCCAAGCAAUAUUACGUGGG the same measures were -3.89 ± 0.23 and -2.71 ± 0.18.
In the same order, the values of UCCAAGCAAUAUUACGUUGG are -2.99 ± 0.11 and -1.89 ± 0.14.
On to UCCCAGCAAUAUUACGAAAG, for which the “self-splicing fitness (ln)” value was -3.84 ± 0.33 (30 °C) and -3.06 ± 0.17 (37 °C).
For UCCCAGCAAUAUUACGACCG the same measures were -3.22 ± 0.3 and -3.01 ± 0.31.
For UCCCAGCAAUAUUACGAUGU the same measures were -2.1 ± 0.088 and -1.2 ± 0.12.
For UCCCAGCAAUAUUACGCCAA the same measures were -2.7 ± 0.33 and -1.63 ± 0.3.
Take UCCCAGCAAUAUUACGCGAC: the “self-splicing fitness (ln)” value is -4.31 ± 0.29 (30 °C) and -3.36 ± 0.31 (37 °C).
In the same order, the values of UCCCAGCAAUAUUACGCGAU are -3.29 ± 0.21 and -2.64 ± 0.21.
For UCCCAGCAAUAUUACGCGUG the same measures were -3.49 ± 0.18 and -2.34 ± 0.2.
Consider UCCCAGCAAUAUUACGCGUU, for which the “self-splicing fitness (ln)” value is -1.11 ± 0.075 (30 °C) and -0.493 ± 0.089 (37 °C).
In the same order, the values of UCCCAGCAAUAUUACGCUCC are -1.78 ± 0.22 and -0.443 ± 0.3.
For the sequence UCCCAGCAAUAUUACGCUGA, the “self-splicing fitness (ln)” value by setting is: (30 °C) -2.26 ± 0.12; (37 °C) -3.02 ± 0.21.
For UCCCAGCAAUAUUACGGAAA the same measures were -2.01 ± 0.19 and -0.716 ± 0.13.
As for UCCCAGCAAUAUUACGGAAC, the “self-splicing fitness (ln)” value was -4.36 ± 0.27 (30 °C) and -2.65 ± 0.18 (37 °C).
In the same order, the values of UCCCAGCAAUAUUACGGACU are -2.81 ± 0.11 and -1.21 ± 0.096.
UCCCAGCAAUAUUACGGAGA: the “self-splicing fitness (ln)” value (30 °C) was -1.18 ± 0.084 and the “self-splicing fitness (ln)” value (37 °C) was -0.484 ± 0.11.
As for UCCCAGCAAUAUUACGGCGA, the “self-splicing fitness (ln)” value reads like this: (30 °C) -0.651 ± 0.063; (37 °C) -0.335 ± 0.078.
With UCCCAGCAAUAUUACGGCUU, the “self-splicing fitness (ln)” value is, setting by setting: (30 °C) -2.62 ± 0.14; (37 °C) -1.65 ± 0.17.
For UCCCAGCAAUAUUACGGUCU the same measures were -1.83 ± 0.11 and -0.794 ± 0.11.
In the same order, the values of UCCCAGCAAUAUUACGUAAG are -3.88 ± 0.18 and -1.97 ± 0.17.
For UCCCAGCAAUAUUACGUACU the same measures were -3.77 ± 0.19 and -0.776 ± 0.14.
Take UCCGAGCAAUAUUACGACUU: the “self-splicing fitness (ln)” value was -2.69 ± 0.33 (30 °C) and -2.98 ± 0.43 (37 °C).
For UCCGAGCAAUAUUACGAGGG the same measures were -4.27 ± 0.25 and -1.93 ± 0.22.
In the same order, the values of UCCGAGCAAUAUUACGAUUC are -2.88 ± 0.43 and -2.79 ± 0.48.
In the same order, the values of UCCGAGCAAUAUUACGCAAC are -2.57 ± 0.3 and -1.66 ± 0.33.
On to UCCGAGCAAUAUUACGCAGG, for which the “self-splicing fitness (ln)” value is -3.19 ± 0.17 (30 °C) and -1.88 ± 0.19 (37 °C).
With UCCGAGCAAUAUUACGCAUC, the “self-splicing fitness (ln)” value (30 °C) is -3.11 ± 0.41.
Turning to UCCGAGCAAUAUUACGCCAC, where the note is “30 °C”, the “self-splicing fitness (ln)” value was -2.05 ± 0.4.
Same read-out and setting: the figure for UCCGAGCAAUAUUACGCCGU is -2.21 ± 0.22.
Turning to UCCGAGCAAUAUUACGCGCA, the “self-splicing fitness (ln)” value runs as follows: (30 °C) -0.129 ± 0.15; (37 °C) -0.252 ± 0.14.
In the same order, the values of UCCGAGCAAUAUUACGCGGC are -3.97 ± 0.35 and -2.46 ± 0.29.
For UCCGAGCAAUAUUACGCUCG the same measures were -3.71 ± 0.21 and -3.08 ± 0.37.
In the same order, the values of UCCGAGCAAUAUUACGCUGU are -3.1 ± 0.19 and -0.655 ± 0.16.
Take UCCGAGCAAUAUUACGGCAC: the “self-splicing fitness (ln)” value reads like this: (30 °C) -2.01 ± 0.18; (37 °C) -2.76 ± 0.24.
For UCCGAGCAAUAUUACGGGUU the same measures were -3.41 ± 0.14 and -1.9 ± 0.15.
On to UCCGAGCAAUAUUACGGUGC, for which the “self-splicing fitness (ln)” value (30 °C) is -3.26 ± 0.19 and the “self-splicing fitness (ln)” value (37 °C) is -2.62 ± 0.22.
As to UCCGAGCAAUAUUACGUAAA, under “30 °C”, the “self-splicing fitness (ln)” value was -2.8 ± 0.28.
With UCCGAGCAAUAUUACGUAAC, the “self-splicing fitness (ln)” value (37 °C) is -0.912 ± 0.35.
Turning to UCCGAGCAAUAUUACGUGAA, the “self-splicing fitness (ln)” value (30 °C) is -3.29 ± 0.17 and the “self-splicing fitness (ln)” value (37 °C) was -1.16 ± 0.15.
In the same order, the values of UCCGAGCAAUAUUACGUGAC are -4.99 ± 0.41 and -2.66 ± 0.29.
For UCCGAGCAAUAUUACGUGUU the same measures were -2.75 ± 0.16 and -2.36 ± 0.15.
For UCCGAGCAAUAUUACGUUAC the same measures were -3.25 ± 0.43 and -1.63 ± 0.43.
With UCCGAGCAAUAUUACGUUCU, the “self-splicing fitness (ln)” value by setting is: (30 °C) -3.44 ± 0.29; (37 °C) -2.62 ± 0.26.
Take UCCGAGCAAUAUUACGUUUG: the “self-splicing fitness (ln)” value by setting is: (30 °C) -3.31 ± 0.2; (37 °C) -3.36 ± 0.25.
Regarding UCCUAGCAAUAUUACGAAAG, under “30 °C”, the “self-splicing fitness (ln)” value is -2.86 ± 0.33.
Take UCCUAGCAAUAUUACGAAAU: the “self-splicing fitness (ln)” value by setting is: (30 °C) -3.19 ± 0.47; (37 °C) -0.807 ± 0.42.
In the same order, the values of UCCUAGCAAUAUUACGAAUA are -2.81 ± 0.26 and -1.98 ± 0.34.
For UCCUAGCAAUAUUACGACGU the same measures were -0.558 ± 0.098 and -0.499 ± 0.11.
Turning to UCCUAGCAAUAUUACGAGCA, the “self-splicing fitness (ln)” value was -1.64 ± 0.42 (30 °C) and -1.11 ± 0.23 (37 °C).
For the sequence UCCUAGCAAUAUUACGAUCU, the “self-splicing fitness (ln)” value (37 °C) was -1.69 ± 0.37.
As to UCCUAGCAAUAUUACGCAUU, the “self-splicing fitness (ln)” value runs as follows: (30 °C) -3.92 ± 0.21; (37 °C) -1.81 ± 0.11.
In the same order, the values of UCCUAGCAAUAUUACGCCUC are -2.62 ± 0.27 and -2.29 ± 0.39.
As for UCCUAGCAAUAUUACGCUGC, under “37 °C”, the “self-splicing fitness (ln)” value was -2.02 ± 0.29.
Turning to UCCUAGCAAUAUUACGGAAU, the “self-splicing fitness (ln)” value (30 °C) was -3.08 ± 0.15 and the “self-splicing fitness (ln)” value (37 °C) is -2.1 ± 0.21.
In the case of UCCUAGCAAUAUUACGGAGA, the “self-splicing fitness (ln)” value (30 °C) is -0.637 ± 0.072 and the “self-splicing fitness (ln)” value (37 °C) was -0.626 ± 0.079.
In the same order, the values of UCCUAGCAAUAUUACGGUUC are -3.05 ± 0.2 and -1.55 ± 0.17.
For UCCUAGCAAUAUUACGGUUG the same measures were -4.08 ± 0.22 and -1.81 ± 0.14.
UCCUAGCAAUAUUACGUCUA: the “self-splicing fitness (ln)” value (37 °C) is -2.69 ± 0.38.
